Source: patent US20200308270A1 (Zymeworks, published 2020)

T1: human recombinant FcgammaR receptor CD32aR (human, UniProt P12318 34-217, limits assumed)
T1 sequence (looked up): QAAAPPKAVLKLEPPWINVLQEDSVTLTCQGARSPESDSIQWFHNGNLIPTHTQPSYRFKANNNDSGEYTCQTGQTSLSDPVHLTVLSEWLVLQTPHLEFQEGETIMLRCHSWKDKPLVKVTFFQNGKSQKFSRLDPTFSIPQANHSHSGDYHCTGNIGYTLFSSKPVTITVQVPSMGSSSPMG


Experiments:
recombinant human IL-17A = molecular target: T2, recombinant human IL-17A (human, UniProt Q16552 20-155, limits assumed); assay: SPR (ProteOn), IL-17A immobilized, Mab analyte
T2 construct: Bought reagent
T2 sequence (Q16552 20-155 limits assumed): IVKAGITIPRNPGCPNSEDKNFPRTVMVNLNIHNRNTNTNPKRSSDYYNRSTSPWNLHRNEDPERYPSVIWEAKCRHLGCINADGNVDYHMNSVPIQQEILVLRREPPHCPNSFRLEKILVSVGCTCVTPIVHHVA
Protocol: IL-17 affinity determination was carried out as follows. The IL-17A surface was generated using a GLC sensorchip activated by a 1:10 dilution of the standard BioRad sNHS/EDC solutions injected for 140s at 100 pt/min in the ligand (vertical) direction. Immediately after the activation, 1 to 4 microg/mL solution of IL-17A in 10 mM NaOAc pH 4.5 was injected in the ligand (vertical) direction at a flow rate of 25 or 100 microL/min until approximately 75-200 resonance units (RUs) were immobilized. Remaining active groups were quenched by a 140s injection of 1M ethanolamine at 100 μL/min also in the ligand direction. […] Firstly, two buffer injections for 30s at 100 microL/min in the analyte (horizontal) direction were used to stabilize the baseline. […] Sensorgrams were aligned and double-referenced using the buffer blank injection and interspots, and the resulting sensorgrams were analyzed using ProteOn Manager software v3.1. The double-referenced sensorgrams were fit to the Langmuir binding model.

human recombinant FcRn = molecular target: T3, human recombinant FcRn (human, UniProt P55899 24-297; P61769 21-119, limits assumed); assay: SPR (ProteOn), FcRn immobilized, Mab analyte, pH 5.8
T3 construct: also called neonatal receptor
Protocol: FcRn affinity determination was carried out as follows. FcRn surface was generated using a GLC sensorchip activated by a 1:10 dilution of the standard BioRad sNHS/EDC solutions injected for 140s at 100 μL/min in the ligand (vertical) direction. Immediately after the activation, 10 microg/mL solution of FcRn in 10 mM NaOAc pH 4.5 was injected in the ligand (vertical) direction at a flow rate of 25 microL/min for 120s until approximately 2000 resonance units (RUs) were immobilized. Remaining active groups were quenched by a 140s injection of 1M ethanolamine at 30 μL/min also in the ligand direction. The running buffer used on the FcRn surface was PBST pH 5.8. The screening of the Mabs for binding to FcRn was performed by injection of purified Mabs in the analyte (horizontal) direction. Firstly, two buffer injections for 30s at 100 microL/min in the analyte (horizontal) direction were used to stabilize the baseline. Five concentrations of a three-fold dilution series of each Mab starting at 100 nM with a blank buffer control were simultaneously injected at 50 microL/min for 120 s with a 10 minute dissociation phase, resulting in a set of binding sensorgrams with a buffer reference. […] Sensorgrams were aligned and double-referenced using the buffer blank injection and interspots, and the resulting sensorgrams were analyzed using ProteOn Manager software v3.1. The double-referenced sensorgrams were fit to the Langmuir binding model.

[1] = molecular target: human recombinant FcgammaR receptor CD16aV (human, UniProt P08637 17-208, limits assumed); assay: SPR (ProteOn), Mab captured via anti-human Fc, FcgammaR analyte
human recombinant FcgammaR receptor CD16aV, sequence (P08637 17-208 F176V limits assumed): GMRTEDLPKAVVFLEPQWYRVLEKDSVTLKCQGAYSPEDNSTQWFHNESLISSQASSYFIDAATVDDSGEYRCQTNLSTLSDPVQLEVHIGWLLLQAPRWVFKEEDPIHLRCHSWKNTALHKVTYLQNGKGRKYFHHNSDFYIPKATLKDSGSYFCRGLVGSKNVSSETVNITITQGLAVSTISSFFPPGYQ
Protocol: (§1) Goat polyclonal anti-human Fc antibody was purchased from Jackson Immuno Research Laboratories Inc. (West Grove, Pa.). […] Human recombinant FcγR receptors: CD16aV, CD32bF, CD32aR, and CD32aH were expressed as constructs containing a His10-tag at the C-terminus and purified by Ni-affinity chromatography followed by His-tag removal and SEC purification.
(§2) FcγR affinity determination was carried out as follows. The screening of Mabs for binding to various FcγR receptors occurred in two steps: an indirect capture of Mab samples onto the anti-human Fc-specific polyclonal antibody surface, followed by the injection of five concentrations of each of FcγR receptors. The anti-human Fc surface was prepared on a GLC sensorchip by amine coupling. GLC sensorchip surface was activated by a 1:10 dilution of the standard BioRad sNHS/EDC solutions injected for 140s at 100 μL/min in the analyte (horizontal) direction. Immediately after the activation, 25 microg/mL solution of anti-human Fc in 10 mM NaOAc pH 4.5 was injected in the analyte direction at a flow rate of 25 microL/min for 240s until approximately 4500 or 2500 resonance units (RUs) were immobilized. Remaining active groups were quenched by a 300s injection of 1M ethanolamine at 30 μL/min also in the analyte direction. Mabs for analysis were indirectly captured onto the anti-human Fc surface by injecting 10 microg/ml solutions in the ligand (vertical) direction at a flow rate of 25 microL/min for 240s. Each of the FcγR receptors was subsequently injected in the analyte (horizontal) direction. Firstly, two buffer injections for 30s at 100 microL/min in the analyte (horizontal) direction were used to stabilize the baseline. Five concentrations of a three-fold dilution series of each of the four FcγR receptors starting at 10 μM with a blank buffer control were then simultaneously injected at 50 microL/min for 120 s with a 3 minute dissociation phase, resulting in a set of binding sensorgrams with a buffer reference. […] Sensorgrams were aligned and double-referenced using the buffer blank injection and interspots, and the resulting sensorgrams were analyzed using ProteOn Manager software v3.1.

[2] = molecular target: T1, human recombinant FcgammaR receptor …; assay: as above
Protocol: as §1, §2

recombinant human HER3 = molecular target: T4, recombinant human HER3 (human, UniProt P21860 20-643); assay: SPR (ProteOn), Mab captured via anti-human Fc, HER3 analyte
T4 construct: Bought reagent
Protocol: HER3 affinity determination in Mabs was carried out as follows. The screening of Mabs for binding to HER3 antigen occurred in two steps: an indirect capture of Mabs onto the anti-human Fc-specific polyclonal antibody surface, followed by the injection of five concentrations of HER3. The anti-human Fc surface was prepared on a GLC sensorchip by amine coupling. GLC sensorchip surface was activated by a 1:10 dilution of the standard BioRad sNHS/EDC solutions injected for 140s at 100 pt/min in the analyte (horizontal) direction. Immediately after the activation, 25 microg/mL solution of anti-human Fc in 10 mM NaOAc pH 4.5 was injected in the ligand (vertical) direction at a flow rate of 25 microL/min for 240s until approximately 3000 resonance units (RUs) were immobilized. Remaining active groups were quenched by a 140s injection of 1M ethanolamine at 100 μL/min also in the analyte direction. Mabs for analysis were indirectly captured onto the anti-Fc surface by injecting 20 microg/mL solutions in the ligand (vertical) direction at a flow rate of 25 microL/min for 240s. HER3 was subsequently injected in the analyte (horizontal) direction. Firstly, two buffer injections for 30s at 100 microL/min in the analyte (horizontal) direction were used to stabilize the baseline. […] Sensorgrams were aligned and double-referenced using the buffer blank injection and interspots, and the resulting sensorgrams were analyzed using ProteOn Manager software v3.1. The double-referenced sensorgrams were fit to the Langmuir binding model.

Kd (recombinant human IL-17A)	Kd (human recombinant FcRn)	Kd [1]	Kd [2]	Kd (recombinant human HER3)	Binder
0.044 nM	24.7 nM	1300 nM	2400 nM		CAT-2200 designed Vlambda-Ckappa chimeric Mab, design 39 (E83A_D85T_T105E_V106I) (antibody, human IgG1, kappa, IgG1 Mab format) heavy: not shown light: NFMLTQPHSVSESPGKTVTISCTRSSGSLANYYVQWYQQRPGSSPTIVIFANNQRPSGVPDRFSGSIDSSSNSASLTISGLKTEDAATYYCQTYDPYSVVFGGGTKLEILRTVAAPSVFIFPPSDEQLKSGTASVVCLLNNFYPREAKVQWKVDNALQSGNSQESVTEQDSKDSTYSLSSTLTLSKADYEKHKVYACEVTHQGLSSPVTKSFNRGEC
0.048 nM	23.4 nM	1400 nM	2400 nM		CAT-2200 designed Vlambda-Ckappa chimeric Mab, design 37 (E83A_D85T) (antibody, human IgG1, kappa, IgG1 Mab format) heavy: not shown light: NFMLTQPHSVSESPGKTVTISCTRSSGSLANYYVQWYQQRPGSSPTIVIFANNQRPSGVPDRFSGSIDSSSNSASLTISGLKTEDAATYYCQTYDPYSVVFGGGTKLTVLRTVAAPSVFIFPPSDEQLKSGTASVVCLLNNFYPREAKVQWKVDNALQSGNSQESVTEQDSKDSTYSLSSTLTLSKADYEKHKVYACEVTHQGLSSPVTKSFNRGEC
0.048 nM					CAT-2200 designed Vlambda-Ckappa chimeric Mab, design 26 (E83V_D85T) (antibody, human IgG1, kappa, IgG1 Mab format) heavy: not shown light: NFMLTQPHSVSESPGKTVTISCTRSSGSLANYYVQWYQQRPGSSPTIVIFANNQRPSGVPDRFSGSIDSSSNSASLTISGLKTEDVATYYCQTYDPYSVVFGGGTKLTVLRTVAAPSVFIFPPSDEQLKSGTASVVCLLNNFYPREAKVQWKVDNALQSGNSQESVTEQDSKDSTYSLSSTLTLSKADYEKHKVYACEVTHQGLSSPVTKSFNRGEC
0.053 nM					CAT-2200 designed Vlambda-Ckappa chimeric Mab, design 34 (E83I_D85T_T105E_V106I) (antibody, human IgG1, kappa, IgG1 Mab format) heavy: not shown light: NFMLTQPHSVSESPGKTVTISCTRSSGSLANYYVQWYQQRPGSSPTIVIFANNQRPSGVPDRFSGSIDSSSNSASLTISGLKTEDIATYYCQTYDPYSVVFGGGTKLEILRTVAAPSVFIFPPSDEQLKSGTASVVCLLNNFYPREAKVQWKVDNALQSGNSQESVTEQDSKDSTYSLSSTLTLSKADYEKHKVYACEVTHQGLSSPVTKSFNRGEC
0.049 nM	27.9 nM	1300 nM	2300 nM		CAT-2200 designed Vlambda-Ckappa chimeric Mab, design 29 (E83V_D85T_T105E_V106I) (antibody, human IgG1, kappa, IgG1 Mab format) heavy: not shown light: NFMLTQPHSVSESPGKTVTISCTRSSGSLANYYVQWYQQRPGSSPTIVIFANNQRPSGVPDRFSGSIDSSSNSASLTISGLKTEDVATYYCQTYDPYSVVFGGGTKLEILRTVAAPSVFIFPPSDEQLKSGTASVVCLLNNFYPREAKVQWKVDNALQSGNSQESVTEQDSKDSTYSLSSTLTLSKADYEKHKVYACEVTHQGLSSPVTKSFNRGEC
0.042 nM	14.3 nM		2500 nM		CAT-2200 Vlambda-Ckappa chimeric Mab (antibody, human IgG1, kappa, IgG1 Mab format; chimeric light chain without stabilizing substitutions; also called chimera) heavy: not shown light: NFMLTQPHSVSESPGKTVTISCTRSSGSLANYYVQWYQQRPGSSPTIVIFANNQRPSGVPDRFSGSIDSSSNSASLTISGLKTEDEADYYCQTYDPYSVVFGGGTKLTVLRTVAAPSVFIFPPSDEQLKSGTASVVCLLNNFYPREAKVQWKVDNALQSGNSQESVTEQDSKDSTYSLSSTLTLSKADYEKHKVYACEVTHQGLSSPVTKSFNRGEC
0.048 nM					CAT-2200 designed Vlambda-Ckappa chimeric Mab, design 18 (E83F_D85T_T105E) (antibody, human IgG1, kappa, V domains shown, IgG1 Mab format) VH: not shown VL: NFMLTQPHSVSESPGKTVTISCTRSSGSLANYYVQWYQQRPGSSPTIVIFANNQRPSGVPDRFSGSIDSSSNSASLTISGLKTEDFATYYCQTYDPYSVVFGGGTKLEVLR
0.05 nM					CAT-2200 designed Vlambda-Ckappa chimeric Mab, design 32 (E83I_D85T) (antibody, human IgG1, kappa, IgG1 Mab format) heavy: not shown light: NFMLTQPHSVSESPGKTVTISCTRSSGSLANYYVQWYQQRPGSSPTIVIFANNQRPSGVPDRFSGSIDSSSNSASLTISGLKTEDIATYYCQTYDPYSVVFGGGTKLTVLRTVAAPSVFIFPPSDEQLKSGTASVVCLLNNFYPREAKVQWKVDNALQSGNSQESVTEQDSKDSTYSLSSTLTLSKADYEKHKVYACEVTHQGLSSPVTKSFNRGEC
	80.2 nM	1300 nM	3400 nM	67 nM	H3 designed Vlambda-Ckappa chimeric Mab, design 37 (E83A_D85T) (antibody, human IgG1, kappa, name in Kabat numbering, IgG1 Mab format) heavy: not shown light: QSALTQPASVSGSPGQSITISCTGTSSDVGGYNFVSWYQQHPGKAPKLMIYDVSDRPSGVSDRFSGSKSGNTASLIISGLQADDAATYYCSSYGSSSTHVIFGGGTKVTVLRTVAAPSVFIFPPSDEQLKSGTASVVCLLNNFYPREAKVQWKVDNALQSGNSQESVTEQDSKDSTYSLSSTLTLSKADYEKHKVYACEVTHQGLSSPVTKSFNRGEC
